Source: patent publication US20260103513A1

Assays:
[1] = target: TIGIT protein overexpressed on cells (Homo sapiens (Human)) (UniProt Q495A1); experiment: flow cytometry on 293T-TIGIT cells, Alexa-647 anti-human Fc, MFI
[2] = target: Cynomolgus monkey TIGIT-His tag fusion protein (cynomolgus monkey); experiment: ELISA, cynomolgus TIGIT-His coated, HRP anti-human IgG, OD450
Chain of Cynomolgus monkey TIGIT-His tag fusion protein (cynomolgus monkey) (chain, as listed by the source): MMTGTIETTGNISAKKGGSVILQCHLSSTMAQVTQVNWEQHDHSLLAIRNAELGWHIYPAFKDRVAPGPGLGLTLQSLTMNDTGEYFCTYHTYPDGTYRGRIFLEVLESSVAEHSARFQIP

Chain of TIGIT protein overexpressed on cells (Homo sapiens (Human)) (Q495A1 22-244): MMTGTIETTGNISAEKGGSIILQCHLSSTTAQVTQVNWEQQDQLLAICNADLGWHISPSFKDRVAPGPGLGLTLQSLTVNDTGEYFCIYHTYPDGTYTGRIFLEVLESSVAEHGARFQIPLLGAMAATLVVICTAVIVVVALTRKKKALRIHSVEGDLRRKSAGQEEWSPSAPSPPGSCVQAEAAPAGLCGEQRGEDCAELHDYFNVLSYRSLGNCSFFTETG

Substance: Tiragolumab analog (antibody)
- EC50 (read off the curve) [1]: 0.4 µg/mL
- EC50 (read off the curve) [2]: 0.08 µg/mL
